# Positions count from the first letter of the chain named. In names and notes the source's numbering stands.
# B1: Bgl3A (Evansstolkia leycettana; F86Y) (protein)
# chain: YGFGGSGWDAAYGRAKAALNKLNQTEKVGIVTGVKWMGGPCVGNTYKPSSIDYPSLCLQDSPLGVRYANPVTAFPAGINAGATWDRSLINARGAAMGAEAKGLGVNVQLGPVAGPLGKNPNSGRIWEGFSNDPYLSGVAMEETIAGMQGSGVQACAKHYIGNEQEHNRETISSNIDDRTLHELYVWPFMNAVKANVASVMCSYNKVNGSWSCENDALLNGLLKTELGFPGYIMSDWNAQHTTVNSANSGLDMTMPGSDFNNPPGSIYWGPNLEAAVANGSVPQSRLDDMVTRILASWHLVGQDEGYPPVAFSSWNGGKANVDVTGDHKSVVRAVARDSTVLLKNDNNALPLRKPKSLAIIGQDATVNPAGPNACSDRGCDTGTLAMGWGSGTAQFPYIVGPLDAIQSQAAADGTNITTSTTDDTTAAASAAASAGTAIVFINSDSGEGYITVEGNAGDRNNLDPWHNGNELVQAVAAANKNVIVVVHSVGPVILETILAQPNVKAIVWPGLPGQESGNALVDVLYGSTSPSGKLPYTIAKQFSDYGTTWTTSLVDDFTEGLFIDYRHFDENNITPRYEFGYGLSYTTFKYSDLDVNVQARPGAAEGPIVPGGVKELFDTVGTVTVTVQNSGKVAGAEVAQLYIGLPDSAPSTPPKQLRGFQKLHLAPGQREGATFELTRRDISYWDVQQQKWVVPSGTFKVYVGSSSRDIREQGSFRI
# B2: Bgl3A (Evansstolkia leycettana; E188Q) (protein)
# chain: B1 chain with Y67F, E169Q
# B3: Bgl3A (Evansstolkia leycettana; M56E) (protein)
# chain: B1 chain with M37E, Y67F
# B4: Bgl3A (Evansstolkia leycettana; M56N) (protein)
# chain: B1 chain with M37N, Y67F
# What was measured:
# [1] = target: T1, Bgl3A (Evansstolkia leycettana, UniProt A0A1B0VFN7); test: glucose release (GOD-POD), Michaelis-Menten fit; assay type: biochemical; conditions: read-out: Cellobiose / Km; 75 °C, pH 4.5, Na2HPO4-citric acid buffer
# T1 construct: no tag mentioned
# [2] = target: T1, Bgl3A; test: p-nitrophenol release at […] nm, Michaelis-Menten fit; assay type: biochemical; conditions: read-out: pNPG / Km; 75 °C, pH 4.5, Na2HPO4-citric acid buffer
# [3] = substrate: O=[N+]([O-])c1ccc(O[C@@H]2O[C@H](CO)[C@@H](O)[C@H](O)[C@H]2O)cc1; test: purified protein; conditions: 75 °C, pH 4.5, Na2HPO4-citric acid buffer
# T1 sequence (A0A1B0VFN7 entry or part of it): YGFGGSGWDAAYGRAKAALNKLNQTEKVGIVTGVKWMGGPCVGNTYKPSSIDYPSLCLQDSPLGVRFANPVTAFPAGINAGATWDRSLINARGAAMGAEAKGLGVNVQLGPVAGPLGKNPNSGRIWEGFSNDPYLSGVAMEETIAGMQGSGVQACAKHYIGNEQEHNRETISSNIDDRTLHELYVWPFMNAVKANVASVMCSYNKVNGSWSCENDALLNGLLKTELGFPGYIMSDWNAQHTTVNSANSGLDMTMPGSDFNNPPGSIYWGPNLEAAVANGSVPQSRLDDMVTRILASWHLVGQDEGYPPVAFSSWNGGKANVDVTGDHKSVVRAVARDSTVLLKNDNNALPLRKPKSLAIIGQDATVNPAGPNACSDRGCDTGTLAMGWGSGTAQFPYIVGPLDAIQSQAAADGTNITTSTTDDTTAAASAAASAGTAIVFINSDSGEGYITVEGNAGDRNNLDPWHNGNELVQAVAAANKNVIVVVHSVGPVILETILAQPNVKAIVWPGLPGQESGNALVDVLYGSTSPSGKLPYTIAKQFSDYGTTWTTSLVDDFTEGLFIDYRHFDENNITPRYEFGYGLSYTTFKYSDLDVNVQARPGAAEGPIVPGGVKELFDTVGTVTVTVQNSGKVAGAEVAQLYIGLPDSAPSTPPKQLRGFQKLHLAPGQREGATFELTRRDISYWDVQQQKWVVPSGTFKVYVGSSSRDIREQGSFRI
Molecule,Km [1],Km [2],Km [3],kcat [3],kcat/Km [3]
OC[C@H]1O[C@@H](O[C@H]2[C@H](O)[C@@H](O)C(O)O[C@@H]2CO)[C@H](O)[C@@H](O)[C@@H]1O (some centres unmarked) [cellobiose],10400 ± 400 µM,–,–,–,–
O=[N+]([O-])c1ccc(O[C@@H]2O[C@H](CO)[C@@H](O)[C@H](O)[C@H]2O)cc1 [4-nitrophenyl β-D-glucopyranoside],–,180 ± 30 µM,–,–,–
B1,–,–,240 ± 20 µM,1770 s⁻¹,7.45e+06 M⁻¹ s⁻¹
B2,–,–,210 ± 30 µM,1740 s⁻¹,8.39e+06 M⁻¹ s⁻¹
B3,–,–,250 ± 30 µM,1800 s⁻¹,7.09e+06 M⁻¹ s⁻¹
B4,–,–,590 ± 70 µM,1070 s⁻¹,1.79e+06 M⁻¹ s⁻¹

# Reference: publication PMC8699594, “Improving the Substrate Affinity and Catalytic Efficiency of β-Glucosidase Bgl3A from Talaromyces leycettanus JCM12802 by Rational Design” (Biomolecules, 2021)
